Details in all cases: protein: extract; tags: none (endogenous, nuclear extract)
For data set [1], the target named is T1, HIF-1 (HIF-1alpha/HIF-1beta (ARNT) heterodimer) (UniProt Q16665;P27540 Q16665:1-826,P27540:2-789). The experiment in a line: competition; TransAM; two sites. Here is the method: (§1) To assess the relative affinities of oligonucleotides for a HIF-1α containing complex, the HIF-1 TransAM assay (Active Motif, Catalog # 47096) was utilized. The assay was performed according to manufacturer's instructions. Briefly, a double-stranded oligonucletide containing the hypoxia response element (HRE) was immobilized on a 96-well plate. A nuclear extract containing HIF-1α complexes was incubated and allowed to bind to the immobilized oligonucleotide. The unbound material was washed away and the bound HIF-1α detected using an antibody that specificially recognizes HIF-1α. The anti-HIF-1α antibody was detected by a secondary antibody labeled with horseradish peroxidase (HRP), and the amount of HRP in each well was measured using a calorimetric substrate reaction and read using a microplate spectrophotometer.
(§2) The ability of candidate decoy molecules to compete for binding of HIF-1α to the HRE element-immobilized on the plate were measured and compared to reveal relative binding affinities. Candidate decoys were added in increasing molar ratios (relative to the amount of oligo immobilized on the plate) to compete for binding to the HIF-1α containing complexes. The amounts of decoys added to the assay included 0.625, 1.25, 2.5, 5, 10 and 20 fold molar excess. A well containing a competing decoy able to bind HIF-1α with high affinity would give a lower absorbance reading as compared to a decoy with low affinity for HIF-1α. All potential decoys were then compared and ranked in order to assess their relative binding affinities.
(§3) The screen was conducted using different decoy concentrations. For each UV absorbance reading, normalization was done by calculating the ratio of absorbance readings of sample vs. wild type control. The bigger ratio represents less competition of binding with HIF-1α when compared with wild-type control. The smaller (smaller than 1.0 or close to 1.0) ratios represent better binding or better competition.

In data set [2] the target is T1, HIF-1 (HIF-1alpha/HIF-1beta (ARNT) …). Nature of the data set: competition; 2.5-fold molar excess.
The target is the same in data set [3]. Nature of the data set: competition; TransAM. Here is the method: as §1, §2, §3
Data set [4] shares this target. The experiment in a line: competition; TransAM absorbance ratio vs wild-type control at 2.5; lower = better (all Table 2B lines); 1.22 in Table 5.

T1 sequence (Q16665 whole entry, chain 1 of 2): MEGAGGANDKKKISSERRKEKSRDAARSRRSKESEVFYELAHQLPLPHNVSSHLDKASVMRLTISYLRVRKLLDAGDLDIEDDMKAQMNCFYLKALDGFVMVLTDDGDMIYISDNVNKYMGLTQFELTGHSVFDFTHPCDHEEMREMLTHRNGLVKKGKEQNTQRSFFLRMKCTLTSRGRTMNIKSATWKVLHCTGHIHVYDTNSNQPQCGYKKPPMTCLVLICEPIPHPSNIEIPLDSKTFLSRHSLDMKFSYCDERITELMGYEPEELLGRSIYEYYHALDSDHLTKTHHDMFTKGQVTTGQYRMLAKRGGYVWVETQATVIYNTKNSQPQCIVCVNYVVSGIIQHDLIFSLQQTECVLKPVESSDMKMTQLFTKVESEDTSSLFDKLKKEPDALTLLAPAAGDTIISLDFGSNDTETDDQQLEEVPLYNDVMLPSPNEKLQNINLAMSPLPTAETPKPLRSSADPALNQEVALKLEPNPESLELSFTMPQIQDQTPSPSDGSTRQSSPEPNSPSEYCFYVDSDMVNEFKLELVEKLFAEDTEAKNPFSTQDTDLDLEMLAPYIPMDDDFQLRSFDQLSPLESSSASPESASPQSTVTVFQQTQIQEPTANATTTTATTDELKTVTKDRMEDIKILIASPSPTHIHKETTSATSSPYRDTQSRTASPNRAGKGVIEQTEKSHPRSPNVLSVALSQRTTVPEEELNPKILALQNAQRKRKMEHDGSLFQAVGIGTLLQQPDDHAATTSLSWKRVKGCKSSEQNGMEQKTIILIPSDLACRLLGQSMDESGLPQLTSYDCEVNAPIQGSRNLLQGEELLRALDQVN
T1 sequence (P27540 2-789, chain 2 of 2): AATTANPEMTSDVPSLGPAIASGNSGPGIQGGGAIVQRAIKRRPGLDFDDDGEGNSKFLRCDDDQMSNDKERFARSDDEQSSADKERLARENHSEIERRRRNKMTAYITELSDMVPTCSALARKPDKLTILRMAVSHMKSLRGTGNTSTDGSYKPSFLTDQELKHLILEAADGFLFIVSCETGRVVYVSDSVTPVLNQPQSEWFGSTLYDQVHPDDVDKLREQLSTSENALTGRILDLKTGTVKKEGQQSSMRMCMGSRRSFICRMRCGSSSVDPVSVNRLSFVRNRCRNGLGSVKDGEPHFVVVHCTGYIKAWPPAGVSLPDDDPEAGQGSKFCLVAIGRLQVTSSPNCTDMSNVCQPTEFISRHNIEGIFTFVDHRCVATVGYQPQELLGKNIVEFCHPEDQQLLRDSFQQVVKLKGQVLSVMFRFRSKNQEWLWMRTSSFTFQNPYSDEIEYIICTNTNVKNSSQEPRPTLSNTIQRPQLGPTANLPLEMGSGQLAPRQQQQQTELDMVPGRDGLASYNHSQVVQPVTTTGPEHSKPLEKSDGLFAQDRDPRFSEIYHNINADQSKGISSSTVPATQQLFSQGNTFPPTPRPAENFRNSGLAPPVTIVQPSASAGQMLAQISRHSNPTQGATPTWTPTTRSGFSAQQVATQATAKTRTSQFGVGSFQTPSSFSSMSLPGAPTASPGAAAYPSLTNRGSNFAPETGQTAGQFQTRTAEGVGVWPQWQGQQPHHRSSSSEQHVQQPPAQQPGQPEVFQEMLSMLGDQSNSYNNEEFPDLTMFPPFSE

B1: decoy 819/820 double (dsDNA)
DNA 1: GAAATACGTGCGCTTTGTGTGTACGTGCAGGAA
DNA 2: TTCCTGCACGTACACACAAAGCGCACGTATTTC
In data set [1], B1 displayed a binding signal of 1.16 ratio.

B2: 895/896 H6/H6 (dsDNA)
DNA 1: CACCAGCGTACGTGCCTCAGG
DNA 2: CCTGAGGCACGTACGCTGGTG
modifications: PS at 6 linkages from 3' end, both strands
As for B2, the binding signal in data set [2] came to 1.01 ratio.

B3: 895/896 PS/PO (dsDNA)
DNA 1: CACCAGCGTACGTGCCTCAGG
DNA 2: CCTGAGGCACGTACGCTGGTG
modifications: 895: full PS; 896: unmodified
Regarding B3, the binding signal in data set [2] amounted to 0.52 ratio.

B4: 895/896 H5/H5 (dsDNA)
DNA 1: CACCAGCGTACGTGCCTCAGG
DNA 2: CCTGAGGCACGTACGCTGGTG
modifications: PS at 5 linkages from 3' end, both strands
In data set [2], B4 gave a binding signal of 1.34 ratio.

B5: decoy 891/892 (dsDNA)
DNA 1: GGCTGCTGCATACGTGCAGGTC
DNA 2: GACCTGCACGTATGCAGCAGCC
Molecule B5 registered a binding signal in data set [3] of 1.21 ratio.

B6: 895/896 H3/H3 (dsDNA)
DNA 1: CACCAGCGTACGTGCCTCAGG
DNA 2: CCTGAGGCACGTACGCTGGTG
modifications: PS at 3 linkages from 3' end, both strands
As to B6, the binding signal in data set [2] is 1.33 ratio.

B7: decoy 811/812 (dsDNA)
DNA 1: ACGCTGAGTGCGTGCGGGAC
DNA 2: GTCCCGCACGCACTCAGCGT
B7: in data set [3], the binding signal is 3.9 ratio.

B8: 895/896 H4/H4 (dsDNA)
DNA 1: CACCAGCGTACGTGCCTCAGG
DNA 2: CCTGAGGCACGTACGCTGGTG
modifications: PS at 4 linkages from 3' end, both strands
With B8, in data set [2], the binding signal is 1.42 ratio.

B9: decoy 903 (dsDNA)
DNA 1: CACCTGCATACGTGGGCTCCA
DNA 2: TGGAGCCCACGTATGCAGGTG
In turn, B9 gave a binding signal in data set [3] of 1.94 ratio.

B10: 895/896 H5/PO (dsDNA)
DNA 1: CACCAGCGTACGTGCCTCAGG
DNA 2: CCTGAGGCACGTACGCTGGTG
modifications: 895: PS at 5 linkages from 3' end; 896: unmodified
In data set [2], B10 yielded a binding signal of 1.27 ratio.

B11: decoy 885/886 (dsDNA)
DNA 1: TACAGACGTGCAGGTC
DNA 2: GACCTGCACGTCTGTA
The molecule B11 yielded a binding signal in data set [3] of 4.46 ratio.

B12: decoy 889/890 (dsDNA)
DNA 1: TGCATACGTGCAGGTC
DNA 2: GACCTGCACGTATGCA
B12 returned a binding signal in data set [3] of 4.14 ratio.

B13: decoy 907 double (dsDNA)
DNA 1: GAAATACGTGCGTGTGTACGTGCAGG
DNA 2: CCTGCACGTACACACGCACGTATTTC
The molecule B13 displayed a binding signal in data set [1] of 0.91 ratio.

B14: decoy 841/842 double (dsDNA)
DNA 1: AGCGGACGTGCAGAAGTTGCACGTCCTCT
DNA 2: AGAGGACGTGCAACTTCTGCACGTCCGCT
For B14, the binding signal in data set [1] was found to be 0.99 ratio.

B15: decoy 857/858 double (dsDNA)
DNA 1: GCGGACGTGCGGGAACCCACGTGTAGG
DNA 2: CCTACACGTGGGTTCCCGCACGTCCGC
For the molecule B15, in data set [1], the binding signal amounted to 2.46 ratio.

B16: 895/896 PS/PS (dsDNA)
DNA 1: CACCAGCGTACGTGCCTCAGG
DNA 2: CCTGAGGCACGTACGCTGGTG
modifications: full PS both strands
Take B16: in data set [2], the binding signal worked out at 0.98 ratio.

B17: decoy 909 double (dsDNA)
DNA 1: AGCGGACGTGCAGATGCACGTCCTCT
DNA 2: AGAGGACGTGCATCTGCACGTCCGCT
Consider B17, for which, in data set [1], the binding signal was determined as 1.72 ratio.

B18: decoy 869/870 (dsDNA)
DNA 1: AGCAGACGTGCAGGGT
DNA 2: ACCCTGCACGTCTGCT
Regarding B18, the binding signal in data set [3] is 2.28 ratio.

B19: decoy 879/880 (dsDNA)
DNA 1: GGCTGCTGCAGACGTGCAGGTC
DNA 2: GACCTGCACGTCTGCAGCAGCC
For B19, the binding signal in data set [3] turned out to be 1.4 ratio.

B20: decoy 883/884 (dsDNA)
DNA 1: AGAAGACGTGCAGGAT
DNA 2: ATCCTGCACGTCTTCT
In data set [3], B20 gave a binding signal of 4.37 ratio.

B21: decoy 865/866 (dsDNA)
DNA 1: AGCAGACGTGCAGGCA
DNA 2: TGCCTGCACGTCTGCT
Take B21: the binding signal in data set [3] is 2.56 ratio.

B22: decoy 853/854 (dsDNA)
DNA 1: TTGCTTACGTGCGCCCGG
DNA 2: CCGGGCGCACGTAAGCAA
B22 gave a binding signal in data set [3] of 1.73 ratio.

B23: decoy 887/888 (dsDNA)
DNA 1: GGCTGCACCGTACGTGCTGATC
DNA 2: GATCAGCACGTACGGTGCAGCC
B23 had a binding signal in data set [3] of 1.89 ratio.

B24: decoy 895/896 (dsDNA)
DNA 1: CACCAGCGTACGTGCCTCAGG
DNA 2: CCTGAGGCACGTACGCTGGTG
For B24, the binding signal in data set [4] worked out at 1.13 ratio.

B25: decoy 881/882 (dsDNA)
DNA 1: GGCTGCAGGAGACGTGGAGAA
DNA 2: TTCTCCACGTCTCCTGCAGCC
With B25, the binding signal in data set [3] came out at 3.62 ratio.

B26: 895/896 H2/H2 (dsDNA)
DNA 1: CACCAGCGTACGTGCCTCAGG
DNA 2: CCTGAGGCACGTACGCTGGTG
modifications: PS at 2 linkages from 3' end, both strands
As to B26, in data set [2], the binding signal worked out at 0.86 ratio.

B27: decoy 827/828 (dsDNA)
DNA 1: AGGTTACGTGCGGACA
DNA 2: TGTCCGCACGTAACCT
With B27, in data set [3], the binding signal was determined as 4.48 ratio.

B28: decoy 875/876 (dsDNA)
DNA 1: TGCAGACGTGCAGGTC
DNA 2: GACCTGCACGTCTGCA
Molecule B28 showed a binding signal in data set [3] of 2.63 ratio.

B29: decoy 825/826 (dsDNA)
DNA 1: AGGAGACGTGCGAGAA
DNA 2: TTCTCGCACGTCTCCT
On to B29, for which the binding signal in data set [3] was found to be 5.1 ratio.

B30: decoy 863/864 (dsDNA)
DNA 1: AGCAGACGTGCAGGAT
DNA 2: ATCCTGCACGTCTGCT
B30 yielded a binding signal in data set [3] of 2.15 ratio.

B31: 895/896 H3/PS (dsDNA)
DNA 1: CACCAGCGTACGTGCCTCAGG
DNA 2: CCTGAGGCACGTACGCTGGTG
modifications: 895: PS at 3 linkages from 3' end; 896: full PS
B31: in data set [2], the binding signal came out at 1.38 ratio.

The record behind these values is patent US20050215503, “HIF oligonucleotide decoy molecules” (published 2005).
